Series [1] concerns the target T1, ArnR ([4Fe-4S] form) (Corynebacterium glutamicum ATCC 13032, UniProt Q8NR72 1-230).
T1 sequence: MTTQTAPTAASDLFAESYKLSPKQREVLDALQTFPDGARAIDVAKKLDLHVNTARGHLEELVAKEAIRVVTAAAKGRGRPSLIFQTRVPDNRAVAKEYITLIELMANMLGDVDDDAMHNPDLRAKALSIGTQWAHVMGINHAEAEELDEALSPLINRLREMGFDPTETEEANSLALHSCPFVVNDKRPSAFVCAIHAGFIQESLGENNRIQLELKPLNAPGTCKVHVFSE
Briefly: EMSA; [4Fe-4S]; maximal binding at ~315 nM [4Fe-4S] (~32-fold over DNA); SPR: HBS+P (10 mM HEPES, 150 mM NaCl, surfactant P20) with 1 mM DTT, pH 7.4, 25 C, anaerobic; EMSA: 10 mM Tris, 54 mM KCl, 0.3% glycerol, pH 7.5, on ice; native MS: DNA in 100 mM ammonium acetate, pH 8. Particulars: protein: recombinant; tags: C-terminal His; chain copies: 2; label: 5' 6-FAM on strand 1; blunt. (Mobility shift assays separate free from complexed probe on a gel.)

For series [2], the target named is T1, ArnR ([4Fe-4S] form). Briefly: native MS; [4Fe-4S], two clusters per dimer; complex at 71438 Da; [4Fe-4S]:[DNA] ~1; SPR: HBS+P (10 mM HEPES, 150 mM NaCl, surfactant P20) with 1 mM DTT, pH 7.4, 25 C, anaerobic; EMSA: 10 mM Tris, 54 mM KCl, 0.3% glycerol, pH 7.5, on ice; native MS: DNA in 100 mM ammonium acetate, pH 8. Particulars: protein: recombinant; tags: C-terminal His; chain copies: 2; blunt.

B1: hmp promoter 80 bp (JC01_F/JC02_R) (dsDNA)
DNA 1: CGCCTTTCCATGCTTCATGGGTTAATTTCTACGGATTTAATCTAATTAAATAAATCCCAGGATCCAAGCAATTTGGCCTT
DNA 2: AAGGCCAAATTGCTTGGATCCTGGGATTTATTTAATTAGATTAAATCCGTAGAAATTAACCCATGAAGCATGGAAAGGCG
In the case of B1, the binding result in series [1] is listed as “binds”.

B2: hmp promoter 30 bp (JC05_F/JC06_R) (dsDNA)
DNA 1: GGATTTAATCTAATTAAATAAATCCCAGGA
DNA 2: TCCTGGGATTTATTTAATTAGATTAAATCC
Turning to B2, the binding result in series [2] is given as “binds”.

(Values after article PMC12343034, “ArnR binds a [4Fe–4S] cluster and indirectly senses anaerobicity in Corynebacteria”.)
